# Measurements as given in patent US20250051454A1 (DUKE UNIVERSITY, published 2025).
# Changes are numbered by the printed parent chain.
# B1: CA156 (antibody, V domains shown)
# VH: EVQLVESGGGLVKPGGSLRLSCAASGFTFSSYSMNWVRQAPGKGLEWVSSISSSSSYIYYADSVKGRFTISRDNAKNSLYLQMNSLRAEDTAVYYCARDFSGDFWSGYDYWGQGTLVTVSS
# VL: not shown
# B2: CA151 (antibody, V domains shown)
# VH: QVQLQESGPGLVKPSETLSLTCTVSGGSVSSGSYYWSWIRQPPGKGLEWIGYIYYSGSTNYNPSLKSRVTISVDTSKNQFSLKLSSVTAADTAVYYCASFTRMSPYAFDIWGQGTMVTVSS
# VL: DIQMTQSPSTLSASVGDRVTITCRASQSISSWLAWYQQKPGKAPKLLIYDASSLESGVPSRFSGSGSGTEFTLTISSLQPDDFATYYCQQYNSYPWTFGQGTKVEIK
# B3: CA168 (antibody, V domains shown)
# VH: QVQLVQSGAEVKKPGSSVKVSCKASGGTFSSYAISWVRQAPGQGLEWMGGIIPIFGTANYAQKFQGRVTITADKSTSTAYMELSSLRSEDTAVYYCARALTYYDFPDYGMDVWGQGTTVTVSS
# VL: QSALTQPPSASGSPGQSVTISCTGTSSDVGGYNYVSWYQQHPGKVPKLMIYEVTKRPSGVPDRFSGSKSGNTASLTVSGLQAEDEADYYCSSYAGSNNLVFGGGTKLTVL
# B4: CA173 (antibody, V domains shown)
# VH: EVQLVESGGGLVKPGGSLRLSCAASGFTFSSYSMNWVRQAPGEGLEWVSSISSSSTYIYYADSVKGRFTISRDNAKNSLYLQMNSLRAEDTAVYYCARDRPAGSSSLGSGYFDLWGRGTLVTVSS
# VL: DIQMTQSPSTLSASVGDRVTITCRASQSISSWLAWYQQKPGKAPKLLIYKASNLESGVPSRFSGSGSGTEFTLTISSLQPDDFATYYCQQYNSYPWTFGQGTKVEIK
# B5: CA166 (antibody, V domains shown)
# VH: EVQLVESGGGLVKPGGSLRLSCAASGFTFSSYSMNWVRQAPGKGLEWVSSISSSSSYIYYADSVKGRFTISRDNAKNSLYLQMNSLRAEDTAVYYCARVMITFGGADYWGQGTLVTVSS
# VL: DIQMTQSPSSLSASVGDRVTITCRASQNINTYLNWYQKRPGIAPKLLIYGASSLQSGVPSRFSGSGSGTDFTLTISSLQPEDFATYYCQQYHTSPLTFGGGTPVDIK
# B6: CA170 (antibody, V domains shown)
# VH: B5 VH with V99D, M100R, I101D, T102L, F103L, G104D, G105A, A106F, Y108I, L114M
# VL: SYVLTQPPSVSVAPGQTARITCGGNNIGSKSVHWYQQKPGQAPVLVVYDDSDRPSGIPERFSGSNSGNTATLTISRVEAGDEADYYCQVWDSSSDHPWVFGGGTKLTVL
# B7: CA176 (antibody, V domains shown)
# VH: QVQLVESGGGVVQPGRSLRLSCAASGFTFSSYGMHWVRQAPGKGLEWVAVISYDGSNKYYADSVKGRFTISRDNSKNTLYLQMNSLRAEDTAVYYCAKDEGSSDFWSGYYASFDYWGQGTLVTVSS
# VL: DIQMTQSPISLSASVGDRVTITCRASQDISNYLTWYQQKPGKAPKLLIYAASSLQSGVPSRFSGSGSGTDFTLTISNLQPEDFATYYCQQNYSYPCTFGQGTKVEIK
# B8: CA177 (antibody, V domains shown)
# VH: QVQLQESGPGLVKPSETLSLTCTVSGGSISSYYWSWIRQPPGKGLEWIGYIYYSGSTNYNPSLKSRVTISVDTSKNQFSLKLSSVTAADTAVYYCASHDYTDHAAGYWGQGTLVTVSS
# VL: not shown
# B9: CA169 (antibody, V domains shown)
# VH: EVQLVESGGGLVKPGGSLRLSCAASGFTFSSYSMNWVRQAPGKGLEWVSSISSSSSYIYYADSVKGRFTISRDNAKNSLYLQMNSLRAEDTAVYYCASGVLLEAFDYWGQGTLVTVSS
# VL: SYVLTQPPSVSVAPGQTARITCGGNNIGSKSVHWYQQKPGQAPVLVVYDDSDRPSGIPERFSGSNSGNTATLTISRVEAGDEADYYCQVWDSSSDHVVFGGGTKLTVL
# B10: CA178 (antibody, V domains shown)
# VH: QVQLVQSGAEVKKPGSSVKVSCKASGGTFSSYAISWVRQAPGQGLEWMGGIIPIFGTANYAQKFQGRVTITADESTSTAYMELSSLRSEDTAVYYCARDYGGSYYYEYFQHWGQGTLVTVSS
# VL: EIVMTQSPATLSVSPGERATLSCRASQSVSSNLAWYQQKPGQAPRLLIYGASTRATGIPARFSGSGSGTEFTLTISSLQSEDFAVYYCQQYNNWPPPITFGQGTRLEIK
# B11: CA162 (antibody, V domains shown)
# VH: QVQLVESGGGLVKPGGSLRLSCAASGFTFSDYYMSWIRQAPGKGLEWVSYISSSSSYTNYADSVKGRFTISRDNAKNSLYLQMNSLRAEDTAVYYCARGRTMFKNYYDSSGYYGYFDYWGQGTLVTVSS
# VL: DIQMTQSPSSVSASVGDRVTITCRASQGISSWLAWYQQKPGKAPKLLIYAASSLQSGVPSRFSGSGSGTDFTLTISSLQPEDFATYYCQQANSPLTFGGGTKVEIK
# B12: CA175 (antibody, V domains shown)
# VH: EVQLVESGGGLVQPGGSLRLSCAASGFTFSTYPMNWVRQAPGKGLEWVSYISSSSSTIYYADCVKGRFTISRDNAKNSLYLQMNSLRDEDTAVYYCARYYIAYGMDVWGQGTTVTVSS
# VL: DIQMTQSPSSMSASVGDRVTITCRASQGISNYLAWFQQKPGKAPKRLIYGASSLHRGVPSRFSGSGSGTEFTLTITSLQPEDFATYYCLQHNTYPRTFGQGTKVEIK
# B13: CA154 (antibody, V domains shown)
# VH: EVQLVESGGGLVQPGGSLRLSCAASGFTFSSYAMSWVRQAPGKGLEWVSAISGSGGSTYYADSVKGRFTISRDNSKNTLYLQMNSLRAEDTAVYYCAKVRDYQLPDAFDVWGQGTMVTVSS
# VL: AIRMTQSPSSFSASTGDRVTITCRASQGISSYLAWYQQKPGKAPKLLIYAASTLQSGVPSRFSGSGSGTDFTLTISCLQSEDFATYYCQQYYSYALTFGGGTKVEIK
# B14: CA152 (antibody, V domains shown)
# VH: QVQLVQSGAEVKKPGSSVKVSCKASGGTFSSYAISWVRQAPGQGLEWMGGIIPIFGTANYAQKFQGRVTITADESTSTAYMELSSLRSEDTAVYYCARGQWSPGGYGMDVWGQGTTVTVSS
# VL: not shown
# B15: CA159 (antibody, V domains shown)
# VH: QVQLVQSGAEVKKPGSSVKVSCKASGGTFSSYAISWVRQAPGQGLEWMGGIIPIFGTANYAQKFQGRVTITADESTSTAYMELSSLRSEDTAVYYCARASYYYYYMDVWGKGTTVTVSS
# VL: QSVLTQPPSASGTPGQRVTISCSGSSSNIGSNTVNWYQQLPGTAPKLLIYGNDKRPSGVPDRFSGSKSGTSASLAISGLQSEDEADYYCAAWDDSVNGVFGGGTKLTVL
# B16: CA157 (antibody, V domains shown)
# VH: EVQLVESGGGLVQPGGSLRLSCAASGFTFSSYEMNWVRQAPGKGLEWVSYISSSGSTIYYADSVKGRFTISRDNAKNSLYLQMNSLRAEDTAVYYCARGYCSSTSCPFDYWGQGTLVTVSS
# VL: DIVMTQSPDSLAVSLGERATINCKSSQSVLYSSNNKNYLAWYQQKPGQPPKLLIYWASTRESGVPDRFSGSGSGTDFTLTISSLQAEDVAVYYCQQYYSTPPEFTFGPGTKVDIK
# B17: CA153 (antibody, V domains shown)
# VH: EVQLVESGGGLVKPGGSLRLSCAASGFTFSSYSMNWVRQAPGKGLEWVSSISSSSSYIYYADSVKGRFTISRDNAKNSLYLQMNSLRAEDTAVYYCARLTYYYYMDVWGKGTTVTVSS
# VL: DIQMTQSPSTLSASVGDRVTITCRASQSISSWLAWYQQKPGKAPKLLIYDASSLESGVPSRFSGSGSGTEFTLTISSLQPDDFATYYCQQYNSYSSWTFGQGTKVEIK
# B18: CA158 (antibody, V domains shown)
# VH: B9 VH with S98R, G99M, V100Y, L101Q, E103A, F105I
# VL: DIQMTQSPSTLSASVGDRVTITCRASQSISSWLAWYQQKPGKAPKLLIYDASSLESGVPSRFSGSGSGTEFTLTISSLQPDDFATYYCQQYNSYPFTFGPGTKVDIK
# B19: CA180 (antibody, V domains shown)
# VH: QVQLVQSGAEVKKPGASVKVSCKASGYTFTSYGISWVRQAPGQGLEWMGWISAYNGNTNYAQKLQGRVTMTTDTSTSTAYMELRSLRSDDTAVYYCARDLGYSSSWYTSNWFDPWGQGTLVTVSS
# VL: QSALTQPASVSGSPGQSITISCTGTSSDVGSYNLVSWYQQHPGKAPKLMIYEGSKRPSGVSNRFSGSKSGNTASLTISGLQAEDEADYYCCSYAGSSTVVFGGGTKLTVL
# Target: T1, HLA-E-RL9HIV single chain trimer on transfected 293T cells (human, UniProt P61769 21-119; P13747 22-358)
# T1 construct: also called control HLA-E-peptide complex
# Assay: flow cytometry, SCT-transfected 293T cells, MFI bar chart [E]
row,Binder,binding result
1,B1,no binding (tested: 2 µg/ml)
2,B2,no binding (tested: 2 µg/ml)
3,B3,no binding (tested: 2 µg/ml)
4,B4,no binding (tested: 2 µg/ml)
5,B5,no binding (tested: 2 µg/ml)
6,B6,no binding (tested: 2 µg/ml)
7,B7,no binding (tested: 2 µg/ml)
8,B8,no binding (tested: 2 µg/ml)
9,B9,no binding (tested: 2 µg/ml)
10,B10,no binding (tested: 2 µg/ml)
11,B11,no binding (tested: 2 µg/ml)
12,B12,no binding (tested: 2 µg/ml)
13,B13,no binding (tested: 2 µg/ml)
14,B14,no binding (tested: 2 µg/ml)
15,B15,no binding (tested: 2 µg/ml)
16,B16,no binding (tested: 2 µg/ml)
17,B17,no binding (tested: 2 µg/ml)
18,B18,no binding (tested: 2 µg/ml)
19,B19,no binding (tested: 2 µg/ml)

# Target: T2, HLA-E-RL9SIV single chain trimer on transfected 293T cells (human, UniProt P61769 21-119; P13747 22-358)
# T2 construct: also called control HLA-E-peptide complex
# Assay: as above
row,Binder,binding result
1,B1,no binding (tested: 2 µg/ml)
2,B2,no binding (tested: 2 µg/ml)
3,B3,no binding (tested: 2 µg/ml)
4,B4,no binding (tested: 2 µg/ml)
5,B5,no binding (tested: 2 µg/ml)
6,B6,no binding (tested: 2 µg/ml)
7,B7,no binding (tested: 2 µg/ml)
8,B8,no binding (tested: 2 µg/ml)
9,B9,no binding (tested: 2 µg/ml)
10,B10,no binding (tested: 2 µg/ml)
11,B11,no binding (tested: 2 µg/ml)
12,B12,no binding (tested: 2 µg/ml)
13,B13,no binding (tested: 2 µg/ml)
14,B14,no binding (tested: 2 µg/ml)
15,B15,no binding (tested: 2 µg/ml)
16,B16,no binding (tested: 2 µg/ml)
17,B17,no binding (tested: 2 µg/ml)
18,B18,no binding (tested: 2 µg/ml)
19,B19,no binding (tested: 2 µg/ml)
